Test results: article PMC12009414

Legend:
[1] = target: T1, Polθ-hel WT (DNA polymerase theta helicase domain) (human, UniProt O75417 1-894); test: EMSA
[2] = target: T1, Polθ-hel WT (DNA polymerase theta …); test: fluorescence anisotropy
[3] = target: T1, Polθ-hel WT (DNA polymerase theta …); test: cryo-EM structure

T1 sequence (O75417 1-894): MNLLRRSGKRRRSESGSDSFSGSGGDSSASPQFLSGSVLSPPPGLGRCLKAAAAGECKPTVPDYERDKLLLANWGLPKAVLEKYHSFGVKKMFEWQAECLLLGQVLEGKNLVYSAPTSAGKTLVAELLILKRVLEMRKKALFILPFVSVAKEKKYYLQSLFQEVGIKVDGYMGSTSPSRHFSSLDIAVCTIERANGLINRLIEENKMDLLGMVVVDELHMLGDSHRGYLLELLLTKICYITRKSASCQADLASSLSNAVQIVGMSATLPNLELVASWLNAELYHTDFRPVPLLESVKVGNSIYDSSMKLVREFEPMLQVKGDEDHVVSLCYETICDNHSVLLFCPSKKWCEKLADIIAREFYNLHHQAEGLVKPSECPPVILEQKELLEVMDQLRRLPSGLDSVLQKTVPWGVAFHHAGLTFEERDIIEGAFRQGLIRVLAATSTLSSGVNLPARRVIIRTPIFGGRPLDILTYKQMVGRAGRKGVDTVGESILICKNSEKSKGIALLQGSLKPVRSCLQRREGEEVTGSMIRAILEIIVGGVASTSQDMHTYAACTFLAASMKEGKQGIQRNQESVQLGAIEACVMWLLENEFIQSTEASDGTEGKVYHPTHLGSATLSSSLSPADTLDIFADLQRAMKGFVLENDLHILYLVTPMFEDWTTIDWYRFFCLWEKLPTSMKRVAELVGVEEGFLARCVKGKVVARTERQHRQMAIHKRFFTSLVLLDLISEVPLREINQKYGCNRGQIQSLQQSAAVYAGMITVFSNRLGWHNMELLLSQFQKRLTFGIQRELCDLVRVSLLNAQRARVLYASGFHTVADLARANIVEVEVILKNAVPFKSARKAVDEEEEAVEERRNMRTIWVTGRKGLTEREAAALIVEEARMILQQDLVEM

Binder	binding result [1]	binding result [2]	other results
15-nt poly(T) without MH (unlabeled) (dsDNA) DNA 1: CCAACCGACCACACCCACCACCCTACCGCCTTTTTTTTTTTTTTT DNA 2: GGCGGTAGGGTGGTGGGTGTGGTCGGTTGG	binds		
FAM-9T + MH (dsDNA) DNA 1: CCAACCGACCACACCCACCACCCTACCGCCTTTTTTTTTCCCGGG DNA 2: GGCGGTAGGGTGGTGGGTGTGGTCGGTTGG		binds	
9-nt poly(T) with MH (unlabeled) (dsDNA) DNA 1: CCAACCGACCACACCCACCACCCTACCGCCTTTTTTTTTCCCGGG DNA 2: GGCGGTAGGGTGGTGGGTGTGGTCGGTTGG	binds		
FAM-15T no MH (dsDNA) DNA 1: CCAACCGACCACACCCACCACCCTACCGCCTTTTTTTTTTTTTTTTT DNA 2: GGCGGTAGGGTGGTGGGTGTGGTCGGTTGG		binds	
FAM-11T + MH (dsDNA) DNA 1: CCAACCGACCACACCCACCACCCTACCGCCTTTTTTTTTTTCCCGGG DNA 2: GGCGGTAGGGTGGTGGGTGTGGTCGGTTGG		binds	
11-nt poly(T) with MH (unlabeled) (dsDNA) DNA 1: CCAACCGACCACACCCACCACCCTACCGCCTTTTTTTTTTTCCCGGG DNA 2: GGCGGTAGGGTGGTGGGTGTGGTCGGTTGG			binding result [3]: binds
